T1: RXR interacting protein, RB204 (human, UniProt O75064 240-1496, limits assumed)
T1 construct: Prey clone from a two-hybrid cDNA library (human bone and cartilage cells) in a vector derived from pJG4-5
T1 sequence: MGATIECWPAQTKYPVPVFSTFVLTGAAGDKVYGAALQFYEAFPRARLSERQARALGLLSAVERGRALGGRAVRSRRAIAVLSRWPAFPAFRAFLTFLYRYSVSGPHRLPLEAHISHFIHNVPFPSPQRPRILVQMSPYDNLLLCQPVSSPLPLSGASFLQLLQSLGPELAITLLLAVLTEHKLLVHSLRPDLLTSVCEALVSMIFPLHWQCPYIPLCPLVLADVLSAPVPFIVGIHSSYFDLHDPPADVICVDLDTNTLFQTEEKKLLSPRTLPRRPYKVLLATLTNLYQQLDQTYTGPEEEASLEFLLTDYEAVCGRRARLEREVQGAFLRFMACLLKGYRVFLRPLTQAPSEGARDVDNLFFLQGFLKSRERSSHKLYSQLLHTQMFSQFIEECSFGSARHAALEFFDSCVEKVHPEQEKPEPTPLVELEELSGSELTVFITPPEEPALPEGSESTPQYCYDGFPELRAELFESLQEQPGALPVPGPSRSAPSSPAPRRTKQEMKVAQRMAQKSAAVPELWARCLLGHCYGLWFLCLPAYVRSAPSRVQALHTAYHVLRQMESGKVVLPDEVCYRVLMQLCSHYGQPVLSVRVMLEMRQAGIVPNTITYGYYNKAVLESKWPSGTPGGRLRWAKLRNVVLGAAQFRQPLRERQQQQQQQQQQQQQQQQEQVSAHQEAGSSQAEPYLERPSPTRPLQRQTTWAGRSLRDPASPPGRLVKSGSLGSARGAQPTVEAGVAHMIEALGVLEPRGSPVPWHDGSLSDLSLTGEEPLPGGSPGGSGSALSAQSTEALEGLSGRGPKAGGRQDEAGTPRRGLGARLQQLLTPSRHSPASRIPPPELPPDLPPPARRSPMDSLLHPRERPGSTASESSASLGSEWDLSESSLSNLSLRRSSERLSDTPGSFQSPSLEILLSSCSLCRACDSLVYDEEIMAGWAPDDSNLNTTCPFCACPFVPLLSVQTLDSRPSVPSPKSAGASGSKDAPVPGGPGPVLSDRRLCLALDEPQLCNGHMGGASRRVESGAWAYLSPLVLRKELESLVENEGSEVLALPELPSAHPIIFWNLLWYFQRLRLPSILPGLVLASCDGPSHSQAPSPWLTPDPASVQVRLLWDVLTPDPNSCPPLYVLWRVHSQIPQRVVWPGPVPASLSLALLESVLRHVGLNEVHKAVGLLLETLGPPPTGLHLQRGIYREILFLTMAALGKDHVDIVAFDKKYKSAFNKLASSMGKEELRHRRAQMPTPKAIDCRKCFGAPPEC

B1: ERb (receptor, UniProt Q92731 248-530, looked up)
chain: SGGHAPRVRELLLDALSPEQLVLTLLEAEPPHVLISRPSAPFTEASMMMSLTKLADKELVHMISWAKKIPGFVELSLFDQVRLLESCWMEVLMMGLMWRSIDHPGKLIFAPDLVLDRDEGKCVEGILEIFDMLLATTSRFRELKLQHKEYLCVKAMILLNSSMYPLVTATQDADSSRKLAHLLNAVTDALVWVIAKSGISSQQQSMRLANLLMLLSHVRHASNKGMEHLLNMKCKNVVPVYDLLLEMLNAHVLRGCKSSITGSECSPAEDSKSKEGSQNPQSQ
notes: Member of the panel of nuclear hormone receptors in the directed two-hybrid analysis; the construct is not described
B2: HNF4g (receptor, UniProt Q14541 99-408, looked up)
chain: SNIPSINTLAQAEVRSRQISVSSPGSSTDINVKKIASIGDVCESMKQQLLVLVEWAKYIPAFCELPLDDQVALLRAHAGEHLLLGATKRSMMYKDILLLGNNYVIHRNSCEVEISRVANRVLDELVRPFQEIQIDDNEYACLKAIVFFDPDAKGLSDPVKIKNMRFQVQIGLEDYINDRQYDSRGRFGELLLLLPTLQSITWQMIEQIQFVKLFGMVKIDNLLQEMLLGGASNDGSHLHHPMHPHLSQDPLTGQTILLGPMSTLVHADQISTPETPLPSPPQGSGQEQYKIAANQASVISHQHLSKQKQL
notes: as for B1
B3: PPARa (receptor, UniProt Q07869 167-468, looked up)
chain: SHNAIRFGRMPRSEKAKLKAEILTCEHDIEDSETADLKSLAKRIYEAYLKNFNMNKVKARVILSGKASNNPPFVIHDMETLCMAEKTLVAKLVANGIQNKEAEVRIFHCCQCTSVETVTELTEFAKAIPGFANLDLNDQVTLLKYGVYEAIFAMLSSVMNKDGMLVAYGNGFITREFLKSLRKPFCDIMEPKFDFAMKFNALELDDSDISLFVAAIICCGDRPGLLNVGHIEKMQEGIVHVLRLHLQSNHPDDIFLFPKLLQKMADLRQLVTEHAQLVQIIKKTESDAALHPLLQEIYRDMY
notes: as for B1
B4: PPARd (receptor, UniProt Q03181 139-441, looked up)
chain: SHNAIRFGRMPEAEKRKLVAGLTANEGSQYNPQVADLKAFSKHIYNAYLKNFNMTKKKARSILTGKASHTAPFVIHDIETLWQAEKGLVWKQLVNGLPPYKEISVHVFYRCQCTTVETVRELTEFAKSIPSFSSLFLNDQVTLLKYGVHEAIFAMLASIVNKDGLLVANGSGFVTREFLRSLRKPFSDIIEPKFEFAVKFNALELDDSDLALFIAAIILCGDRPGLMNVPRVEAIQDTILRALEFHLQANHPDAQYLFPKLLQKMADLRQLVTEHAQMMQRIKKTETETSLHPLLQEIYKDMY
notes: as for B1

Molecular target: T1, RXR interacting protein, RB204
Assay: two-hybrid, directed analysis against a panel of nuclear hormone receptors
Protocol: Screening was performed as per standard protocols (Golemis et al., Current protocols in molecular biology, 20.0.1,1999). […] RB204 interacts weakly with ERa in the presence of estradiol. Sequence analysis identified an LXXLL nuclear hormone interaction motif within the RB204 open reading frame.

Binding result, no binding:
B1, B2, B3, B4

From US20030082682A1 (published 2003)
